Laboratory results: patent publication US20200071775A1

Target: potato virus Y (PVY)
Assay: sandwich ELISA, PVY captured by PVY capture antibody (Agdia), phage at 3 µg/ml, anti-M13 HRP detection

M13KO7 bacteriophage (from UniProt P69168 19-424; P69530 1-112; P69541 24-73)
improved sensitivity compared to the existing antibody (PVY detection antibody, Agdia): 25%
